Assay results: US20070192906A1

Target: rice storage protein glutelin B1 (rice) (UniProt P14323)

Substance pepsin (enzyme) has a degradation by pepsin treatment (Western blot) of 90 % degraded.
